Data reported in US20230250147A1, “GLP-1R AGONISTIC PEPTIDES WITH REDUCED ACTIVITY” (SANOFI, priority 2020, published 2023).
Marks after values point to notes of the source that are not given here. No end group written: not given here.

Experiments:
Monkey GLP-1R = target: T1, Monkey GLP-1R (Macaca fascicularis, UniProt F8V479); test: HTRF cAMP assay in HEK-293 cells, monkey GLP-1R; format: cell-based
T1 construct: expressed in transfected cells; host or cells: HEK-293
Protocol: (§1) Recombinant HEK-293 cells were grown in T175 culture flasks placed at 37° C. to near confluence in medium (DMEM with 10% FBS) and collected in 2 mL vials in cell culture medium containing 10% DMSO in concentrations of 1-5×10^7 cells/mL. Each vial contained 1.8 mL cell suspension. The vials were slowly frozen to −80° C. in an isopropanol chamber, and then transferred to liquid nitrogen for long term storage.
(§2) Prior to their use, frozen cells were thawed quickly at 37° C., washed with 20 mL cell buffer (1×HBSS; 20 mM HEPES, 0.1% BSA) and centrifuged for 5 minutes at 900 rpm. Cells were resuspended in assay buffer (cell buffer plus 2 mM IBMX) and adjusted to a cell density of 1×10^6 cells/mL. For measurement, 5 μL cell suspension (final 5×10^3 cells/well) and 5 μL of test compound were added to a well of a 384-well plate, followed by incubation for 30 minutes at room temperature. […] The cAMP content of cells was determined using a kit from Cisbio Corp. (cat. no. 62AM4PEC) based on Homogenous Time Resolved Fluorescence (HTRF).

Human GLP-1R = target: T2, Human GLP-1R (Homo sapiens, UniProt P43220); test: HTRF cAMP assay in HEK-293 cells, human GLP-1R; format: cell-based
T2 construct: expressed in transfected cells; host or cells: HEK-293
Protocol: as §1, §2

Mouse GLP-1R = target: T3, Mouse GLP-1R (Mus musculus, UniProt O35659); test: HTRF cAMP assay in HEK-293 cells, mouse GLP-1R; format: cell-based
T3 construct: expressed in transfected cells; host or cells: HEK-293
T3 sequence (O35659 22-463): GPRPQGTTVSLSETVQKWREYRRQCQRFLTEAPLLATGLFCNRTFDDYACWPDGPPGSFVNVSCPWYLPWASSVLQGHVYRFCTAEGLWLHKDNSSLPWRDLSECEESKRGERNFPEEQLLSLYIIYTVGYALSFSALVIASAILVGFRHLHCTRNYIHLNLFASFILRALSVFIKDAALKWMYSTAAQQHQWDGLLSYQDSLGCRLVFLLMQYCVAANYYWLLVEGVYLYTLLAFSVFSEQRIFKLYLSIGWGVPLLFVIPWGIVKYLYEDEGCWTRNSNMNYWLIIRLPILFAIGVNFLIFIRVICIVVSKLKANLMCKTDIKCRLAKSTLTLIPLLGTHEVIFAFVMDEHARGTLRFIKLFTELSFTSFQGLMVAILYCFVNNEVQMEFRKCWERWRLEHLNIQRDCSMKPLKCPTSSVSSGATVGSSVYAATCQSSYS
Protocol: as §1, §2

[1] = target: T4, human FGFR1c together with human beta-Klotho (KLB) (human, UniProt P11362 22-822; Q86Z14 1-1044); test: cell-based or functional assay
[2] = target: T4, human FGFR1c together with human …; test: cell-based or functional assay; remark: listed apart in the source
[3] = Thermal shift assay (DSF, Sypro Orange); format: physicochemical; details: Data generated via DSF
Text: In addition, for some proteins a thermal shift assay was applied to analyze thermostability in imitation of differential scanning fluorimetry (DSF or ThermoFluor™) assays (Ahmad S. et al. (2012) Protein Science 21: 433-446; Pantoliano et al. (2001) J. Biomol. Screen 6: 429-440; Niesen et al. (2007) Nat. Protoc. 2: 2212-21). This assay is based on the observation that hydrophobic fluorescent dyes, such as Sypro™ Orange (Life Technologies, cat. No. S6651), increase their fluorescence when they bind to hydrophobic patches on a protein.
Proteins were tested by mixing a solution of each protein in PBS (Gibco) with a 160× solution of Sypro™Orange (diluted in water from a 5000×DMSO stock as provided by the supplier). The sample volume was adjusted to 20 μL with PBS. Typical conditions contained 0.8 mg/mL protein and 8× Sypro™Orange in the final mixture, but protein concentrations could be varied between 0.4 mg/mL and 1.2 mg/mL. Samples were dispensed in 96-well PCR plates (BioRad Semi-Skirt 96 white) and shortly centrifuged to remove air bubbles. […] For excitation and quantification of fluorescence, filters for wavelengths of 485 nm and 575 nm were chosen. […] In curves of fluorescence intensity against temperature, the inflection point was chosen as the measure for the melting temperature (Tm).

[4] = Pharmacokinetics after single subcutaneous administration in mouse; format: in vivo, female C57BI/6 mice; details: FGF21 intact assay; 0.3 mg/kg subcutaneous
Protocol: Plasma concentrations and pharmacokinetic parameters of GLP-1 RA/FGF21 Fc fusion proteins were determined after single subcutaneous administration of 0.3 mg/kg in solution to female C57BI/6 mice or male Cynomolgus monkeys using three different methods. Blood samples were obtained at time points from 30 minutes to 168 hours after dosing. […]
a.) Bioanalytical Screening Method for Quantification of the Intact FGF21 Part of the GLP-1 RA/FGF21 Fc Fusion Proteins Plasma samples were analyzed for the intact FGF21 part of the fusion proteins with an ELISA kit (F1231-K01, Eagle Biosciences, USA). […] For the detection of this immunocomplex, the well was then incubated with a substrate solution in a timed reaction and then measured in a spectrophotometric microplate reader. […]
b.) Bioanalytical Screening Method for Quantification of the Intact Full-Length Fusions Proteins The concentration of the full-length GLP-1RA/FGF21 Fc fusion proteins in plasma were determined utilizing an ELISA method. […] Following washing 3 times with 300 μL PBS-T 150 μL read buffer was added to the wells. […]
c.) Bioanalytical Screening Method for Quantification of the Intact GLP-1 Part of the GLP-1 FGF21 Fc Fusion Proteins Plasma samples were analyzed for the intact GLP-1 part of the fusion proteins with a GLP-1 ELISA method. […]

T4 sequence (P11362 22-822, chain 1 of 2): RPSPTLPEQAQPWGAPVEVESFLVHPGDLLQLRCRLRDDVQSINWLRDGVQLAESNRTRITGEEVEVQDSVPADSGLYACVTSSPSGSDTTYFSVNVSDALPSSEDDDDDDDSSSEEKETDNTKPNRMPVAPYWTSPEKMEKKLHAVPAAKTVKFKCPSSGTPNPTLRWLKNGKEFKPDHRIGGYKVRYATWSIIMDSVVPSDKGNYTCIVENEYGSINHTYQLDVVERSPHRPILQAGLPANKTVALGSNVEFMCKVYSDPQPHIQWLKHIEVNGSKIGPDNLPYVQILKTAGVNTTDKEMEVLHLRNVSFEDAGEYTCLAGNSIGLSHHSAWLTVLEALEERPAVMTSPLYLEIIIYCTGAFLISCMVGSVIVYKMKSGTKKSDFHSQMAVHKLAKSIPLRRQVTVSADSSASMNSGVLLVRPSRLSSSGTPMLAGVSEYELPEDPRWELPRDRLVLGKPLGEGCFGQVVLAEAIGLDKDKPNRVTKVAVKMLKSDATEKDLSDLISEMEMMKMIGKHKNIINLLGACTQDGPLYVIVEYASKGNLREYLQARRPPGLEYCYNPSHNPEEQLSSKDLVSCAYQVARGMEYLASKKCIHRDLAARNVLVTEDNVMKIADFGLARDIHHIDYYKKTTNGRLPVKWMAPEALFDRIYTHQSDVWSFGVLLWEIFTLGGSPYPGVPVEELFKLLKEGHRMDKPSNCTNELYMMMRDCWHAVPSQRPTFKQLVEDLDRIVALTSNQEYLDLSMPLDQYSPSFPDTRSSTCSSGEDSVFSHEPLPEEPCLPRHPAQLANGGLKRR
T4 sequence (Q86Z14 whole entry, chain 2 of 2): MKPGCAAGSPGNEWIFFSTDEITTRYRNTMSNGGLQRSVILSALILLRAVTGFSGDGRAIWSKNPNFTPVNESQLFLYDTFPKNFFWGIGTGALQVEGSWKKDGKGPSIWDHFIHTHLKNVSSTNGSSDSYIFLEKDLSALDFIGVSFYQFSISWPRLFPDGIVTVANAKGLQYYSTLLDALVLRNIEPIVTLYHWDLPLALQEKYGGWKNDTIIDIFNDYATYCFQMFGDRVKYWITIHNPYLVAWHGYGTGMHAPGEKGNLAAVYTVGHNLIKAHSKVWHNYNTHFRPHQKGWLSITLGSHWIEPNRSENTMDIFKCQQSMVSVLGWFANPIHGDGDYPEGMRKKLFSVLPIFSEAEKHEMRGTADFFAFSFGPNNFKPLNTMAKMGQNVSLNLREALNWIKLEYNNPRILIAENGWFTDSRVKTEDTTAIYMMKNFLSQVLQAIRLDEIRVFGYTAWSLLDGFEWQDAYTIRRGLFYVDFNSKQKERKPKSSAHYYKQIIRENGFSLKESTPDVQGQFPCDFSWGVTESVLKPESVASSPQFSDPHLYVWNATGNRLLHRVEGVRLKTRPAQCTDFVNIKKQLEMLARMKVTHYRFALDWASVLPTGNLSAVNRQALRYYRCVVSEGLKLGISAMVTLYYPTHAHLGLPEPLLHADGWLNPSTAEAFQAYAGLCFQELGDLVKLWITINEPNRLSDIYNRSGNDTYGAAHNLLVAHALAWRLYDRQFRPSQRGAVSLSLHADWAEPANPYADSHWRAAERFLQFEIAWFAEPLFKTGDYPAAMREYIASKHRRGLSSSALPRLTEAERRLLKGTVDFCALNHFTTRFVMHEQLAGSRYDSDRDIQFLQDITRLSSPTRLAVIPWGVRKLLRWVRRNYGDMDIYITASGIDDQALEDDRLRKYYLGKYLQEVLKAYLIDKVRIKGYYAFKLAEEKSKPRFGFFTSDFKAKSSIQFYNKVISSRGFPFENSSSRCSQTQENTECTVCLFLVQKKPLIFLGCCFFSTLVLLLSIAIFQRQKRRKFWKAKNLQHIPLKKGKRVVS
T1 sequence (F8V479 24-463): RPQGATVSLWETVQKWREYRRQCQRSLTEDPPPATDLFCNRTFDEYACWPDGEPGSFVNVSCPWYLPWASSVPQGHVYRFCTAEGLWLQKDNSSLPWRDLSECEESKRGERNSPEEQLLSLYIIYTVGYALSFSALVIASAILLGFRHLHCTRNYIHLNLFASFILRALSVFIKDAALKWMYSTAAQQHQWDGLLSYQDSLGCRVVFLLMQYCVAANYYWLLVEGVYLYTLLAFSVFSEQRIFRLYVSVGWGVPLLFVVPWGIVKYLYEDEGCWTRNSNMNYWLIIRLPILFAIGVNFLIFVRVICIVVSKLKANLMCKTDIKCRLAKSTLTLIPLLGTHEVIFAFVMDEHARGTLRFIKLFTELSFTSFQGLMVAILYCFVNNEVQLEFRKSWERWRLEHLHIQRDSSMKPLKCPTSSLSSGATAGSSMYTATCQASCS
T2 sequence (P43220 24-463): as the sequence (F8V479 24-463) above, with N112S, S120F, G202S, V205L, F237L, R241W, V249I counted along it

Molecule “GHGEGTFTSDKSKQLEEEAVRLFIEWLKAGGPKKIRYS-NH2 [compound 278]” has an EC50 (Monkey GLP-1R) of 5.74 pM, an EC50 (Human GLP-1R) of 10.5 pM and an EC50 (Mouse GLP-1R) of 7.65 pM.

B1: G-FGF21 (mature human wild-type FGF21 with an additional N-terminal Gly) (ligand)
chain: GHPIPDSSPLLQFGGQVRQRYLYTDDAQQTEAHLEIREDGTVGGAADQSPESLLQLKALKPGVIQILGVKTSRFLCQRPDGALYGSLHFDPEACSFRELLLEDGYNVYQSEAHGLPLHLPGNKSPHRDPAPRGPARFLPLPGLPPAPPEPPGILAPQPPDVGSSDPLSMVGPSQGRSPSYAS
For B1, the “pERK ICW EC50” value [1] was 0.17 nmol/L and the “pFGFR ICW EC50” value [2] was 4.49 nmol/L.

B2: 252 (protein)
chain: B1 chain
modifications: G-FGF21
With B2 the “Tm (melting temperature)” value [3] was 43.1* ° C and the t1/2 mouse [4] was 42 min.
